Experimental findings from US20090004212A1, “Tumour vaccines for MUC1-positive carcinomas” (priority 1997, published 2009) are described below.

Assay [1] concerns the target T1, human 20S immunoproteasomes (Homo sapiens, UniProt P28062+P28065+P40306).
T1 construct: purchased Immatics Biotechnologies (Tübingen, Germany)
Description: In vitro proteolysis of MUC1 repeat peptides and glycopeptides by immunoproteasomes. It is filed as biochemical. As for the experimental part: A 1 mg/ml solution of immunoproteasomes prepared according to a published protocol (20) was purchased from Immatics Biotechnologies (Tübingen, Germany) and stored frozen at −80° C.
(§1) Glycopeptides were incubated with 10 μg of human 20S immunoproteasomes (Immatics) for […], at 37° C., in 10 μl of digestion buffer (20 mM HEPES/KOH, pH 7.6 containing 2 mM Mg(CH3COO)2 and 1 mM DTT) as described (13). Digestion was stopped after 24 h by freezing the sample at −80° C. Human cathepsin-L was purchased from Sigma (Munich, Germany) and solubilized in 0.1 M sodium acetate, pH 5.5, containing 1 mM EDTA and 1 mM dithiothreitol (12). About 5 mU of enzyme were added to sialoglycopeptide substrates SGGP1 to SGGP5 (75-100 μM) in a total volume of 20 μl. The reaction mixtures were incubated at 37° C. for 24 h and 1 μl of trifluoroacetic acid was added to stop the reaction. The reaction products were cleaned by solid-phase extraction on ZipTipC18 pipette tips and 0.5 μl aliquots were applied onto the MALDI target for mass spectrometric analysis. Kinetic studies with the non-glycosylated 100-mer P1 were performed under the same conditions and the products were chromatographed on HPLC for purification and quantification.

For the next assay, the target named is T2, Human cathepsin-L (Homo sapiens, UniProt P07711).
T2 construct: purchased Sigma (Munich, Germany)
Description: In vitro proteolysis by cathepsin-L. The settings on record: 37° C., 24 h. It is filed as biochemical. As for the experimental part: as §1

In the next assay the test system is T2 target cells. The experiment in a line: CTL activity against peptide-loaded T2 target cells (CFSE/7-AAD). It is filed as cell-based, human. The settings on record: T2 cells loaded with 10 μg/ml peptide, 6-hour incubation. As to the method: (§2) Peripheral blood mononuclear cells (PBMCs) were isolated from buffy coats of HLA-A*0201 healthy donors by Ficoll-Hypaque (MP Biomedicals, Solon, Ohio) density gradient centrifugation.
(§3) Dendritic cells (DCs) were generated by culturing adherent monocytes for 6 days in AIM-V medium (Invitrogen, Carlsbad, Calif.) supplemented with 500 U/mL granulocyte macrophage colonystimulating factor (GM-CSF, R&D, Minneapolis, Minn.) and 1000 U/mL interleukin (IL)-4 (R&D), and then matured for 48 hours with a cocktail of cytokines consisting of 10 ng/mL of each, tumor necrosis factor (TNF)-alpha, IL-6, IL-1beta (R&D), and 1 μg/mL prostaglandine E2 (Sigma, St. Louis, Mo.). […] DCs pulsed with single peptides were combined, washed, resuspended and used as stimulator cells. They were added to the autologous lymphocyte fraction in 24-well Linbro plates (ICN, Aurora, Ohio) at a ratio of 1:10 at culture initiation and fed in RPMI 1640 media supplemented with 10% human AB serum, 10 ng/ml rhIL-6 (R&D) and 5 ng/ml rhIL-12 (PreproTech, Rocky Hill, N.J.). On day 10 and thereafter every 9 days, T cells were restimulated at a ratio of 1 DC to 20 T cells, in RPMI 1640 media supplemented with 10% human AB serum, rhIL-2 and rhIL-7 (20 U/ml each, R&D).
(§4) Antigen Specificity was Assessed after 4 Stimulations. Three Days Past Each stimulation cell supernatant was collected and IFNy secretion was quantified using OptElA human IFNy ELISA kit (BD). CD8+ T-cells were enriched using magnetic microbeads (human CD8+ T Cell Isolation Kit II from Miltenyi Biotech, Auburn, Calif.) according to the manufacture's instructions and analyzed by flow cytometry for intracellular IFN-gamma and TNF-alpha production after a final 5-hour restimulation with peptide-loaded DCs in the presence of monensin (Golgi Stop, BD; 21). CTL activity was determined 3 days after the last restimulation. […] They were washed, labeled with 5- (and 6)-carboxyfluorescein diacetate succinimidyl ester (CFSE) according to the manufacture's instructions (Immunochemistry, Bloomington, Minn.) and added to a 96-well plate in duplicates at 5000 cells/well. CFSE labeled T2 cells not loaded with peptides were used as controls. CD8+ T effector cells were added at various E:T ratios for a 6-hour incubation at 37° C. Target cell death was detected by adding 7-amino-actinomycin (7-AAD, Immunochemistry) to each well 10 min before data analysis by flow cytometry and analysis was performed according to the manufacture's instructions (22).

In the next assay the target is T3, HLA-A0201 (Homo sapiens, UniProt P04439, D140Y/D185E/D98H/E176V/E277Q/G131W/G231S/I119V/I121R/I166T/I218V/L300P/L318F/N151K/N90K/P208A/P217A/Q86G/Q94H/R138H/R169H/T345S).
T3 construct: endogenous in cells; host or cells: T2 cell line (TAP-deficient)
The experiment in a line: MHC stabilization assay on T2 cells. It is filed as binding. The conditions noted are these: T2 cells, 100 μg peptide, 16 h, W6/32 antibody, FACS. As for the experimental part:
MHC stabilization assay is based on the increased affinity of HLA-A, -B, -C specific monoclonal W6/32 antibody for the stabilized conformation of MHC molecules after binding of a peptide ligand. The T2 cells express empty MHC molecules with short half-life.
For MHC stabilization assay T2 cells were grown in IMDM medium supplemented with 2% FCS. T2 cells were washed in PBS from the residual serum, and resuspended at 1×10^6/ml of IMDM supplemented with 0.1% FCS and 25 mM HEPES. Half of a million of cells were incubated in 48-well cell culture plate with 1 μg of […]2-microglobulin and 100 μg of peptide for 16 h at 27° C. and 8% CO2. Cells were washed with 5 ml PBS, centrifuged at 180×g for 5 min and the pellet was resuspended in 10 μl PBS containing 1 μg of W6/32 antibody and incubated at 4° C. for 30 minutes.
Subsequently, cells were washed in PBS with 1% BSA (3×5 ml) and the pellet was resuspended in 50 μl of secondary anti-mouse Alexa 488 antibody (1:1000 in PBS with 0.1% BSA), incubated for 30 minutes in the dark, washed with PBS (3×5 ml) and resuspended in 500 μl of PBS. Binding of the W6/32 antibody to MHC class I molecules was analyzed by FACS on the Beckman Coulter ADCXL4C flow cytometer. As a positive control hepatitis B virus core antigen HBVc18-27 P6Y˜C ([…]) was used. As a negative control T2 cells were used, to which no peptide was added.
Relative binding capacities of the peptides were expressed as the percent of the positive control signal (100%), normalized to the negative control (0%). A mean fluorescence that was at least 10% higher than the negative control level was considered positive binding.

Another assay concerns CD8+ T-cells. The experiment in a line: IFN-gamma and TNF-alpha production by peptide-primed T-cells. It is filed as cell-based, human. The conditions noted are these: after last cycle of restimulation, 4 weeks of in vitro culture. As for the experimental part:
as §2, §3, §4

Assay [2] concerns the target T4, HLA-A*0201 allele of the MHC class I molecule, empty, on the surface of TAP-deficient T2 cells (human).
T4 construct: also called HLA-A2
The experiment in a line: MHC stabilization assay on T2 cells, W6/32 staining, flow cytometry. For orientation: A flow cytometer gives signals particle by particle.

No end group written: not given here. *: point of attachment. αGalNAc = CC(=O)N[C@@H]1[C@@H](O)[C@@H](O)[C@@H](CO)O[C@@H]1*

T2 sequence (P07711 114-333): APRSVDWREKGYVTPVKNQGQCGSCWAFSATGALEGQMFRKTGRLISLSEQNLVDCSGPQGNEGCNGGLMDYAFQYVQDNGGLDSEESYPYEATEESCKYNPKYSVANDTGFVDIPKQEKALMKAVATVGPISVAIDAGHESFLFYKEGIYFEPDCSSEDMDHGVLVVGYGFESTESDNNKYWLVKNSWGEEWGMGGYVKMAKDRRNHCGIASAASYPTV

In the case of (CVISAPDTRPAPGSTAPPAH)x5 [Peptide P1], the “AVERAGE FRAGMENT LENGTH” value in assay [1] (digest by immunoproteasomes) was 25.2. Moreover, in assay [1] (digest by immunoproteasomes, HPLC and MALDI-MS), the “NUMBER OF FRAGMENTS” value turned out to be 105. Moreover, the “% of glycopeptide” value in assay [1] (glycosylated 8- to 11-meric fragments relative to total 8- to 11-mers) stood at 0%. The “8-11 mers (%)” value in assay [1] (relative to total amount of digestion products of immunoproteasomal cleavage) was 13%. For the same molecule, the “digestion of the substrate by cathepsin L” value with Human cathepsin-L is given as “quantitative digestion of the substrate within 24 h”.
In the case of “SAPDT(-GalNAc)RPAPG (SAPDTRPAPG) [Peptide F2]”, the “lysis of peptide-pulsed T2 target cells by induced CD8+ T cells” value (“lysis of peptide-pulsed T2 target cells” below) in the assay on T2 target cells is reported as “efficiently lysed”; in the assay with T2 target cells (listed as SAP10-T5*), “efficiently kill”. For the same molecule, the “ligation strength (binding to HLA-A0201)” value in the assay with HLA-A0201 was “strong binding”; with HLA-A0201 (listed as SAP10-T5*), “binding comparably strong in the glycosylated and non-glycosylated form”; with HLA-A0201 (listed as SAP10-T5-GalNAc) it was “slightly weaker binding”. Moreover, the “CD8+ cells producing IFN-γ” value in the assay on CD8+ T-cells amounted to 22%. In the assay on CD8+ T-cells, the “TNF-α production by CD8+ cells” value is recorded as “not TNF-α”.
In the case of “SAPDTRPAPG (fragment of MUC1; listed as Homo sapiens) [Peptide F1]”, the “lysis of peptide-pulsed T2 target cells” value is recorded as “efficiently lysed” in the assay with T2 target cells and “efficiently kill” in the assay with T2 target cells (listed as SAP10). For the same molecule, in the assay with HLA-A0201, the “ligation strength (binding to HLA-A0201)” value is “strongest binders”. Besides, the “CD8+ cells producing IFN-γ” value with CD8+ T-cells is recorded as 28.8%. Besides, the “TNF-α production by CD8+ cells” value in the assay on CD8+ T-cells is reported as “not TNF-α”.
In the case of SAPES(GalNAc)RPAPG [Peptide F3], in the assay on T2 target cells, the “lysis of peptide-pulsed T2 target cells” value is “only minimal increased cell lysis above the background lysis”. In addition, in the assay on CD8+ T-cells, the “CD8+ cells producing IFN-γ” value was 18.1% and the “TNF-α production by CD8+ cells” value is on record as “not TNF-α”.

B1: SAPDT(-GalNAc)RPAPG (SAP10-T5*) (peptide)
peptide: SAPDT(αGalNAc)RPAPG
notes: Glycopeptide; also called SAP10-T5-GalNAc; F2
In the case of B1, the binding result in assay [2] is listed as “binds”.
With SAPDTRPAPG (also called F1) [SAP10, non-glycosylated MUC1 tandem repeat peptide SAPDTRPAPG], the binding result in assay [2] was “binds”.
